Reference: US20260041702A1

B1: recombinant, human C-terminal (domains III-IV) CCN2 coupled to TriCEPS v3.0 (ligand, UniProt P29279 197-349, looked up)
chain: ANCLVQTTEWSACSKTCGMGISTRVTNDNASCRLEKQSRLCMVRPCEADLEENIKKGKKCIRTPKISKPIKFELSGCTSMKTYRAKFCGVCTDGRCCTPHRTTTLPVEFKCPDGEVMKKNMMFIKTCACHYNCPGDNDIFESLYYRKMYGDMA
modifications: coupled to the trifunctional TriCEPS v3.0 molecule (site of coupling not stated)

Key:
[1] = target: TRFE receptor, TRF1, on Rat2 fibroblasts (rat) (UniProt Q99376); experiment: HATRIC-LRC (LRC-TriCEPS) ligand-receptor capture on Rat2 fibroblasts, LC-MS/MS; positive control of the screen
[2] = target: GPC1 on HEK293A cells (human) (UniProt P35052); experiment: HATRIC-LRC (LRC-TriCEPS) ligand-receptor capture on HEK293A cells, LC-MS/MS; reference BSA control ligand
[3] = target: PTK7 on HEK293A cells (human) (UniProt Q13308); experiment: as above
[4] = target: CCN1 found in the HEK293A cell screen (human) (UniProt O00622); experiment: as above
[5] = target: GPC4 on HEK293A cells (human) (UniProt O75487); experiment: as above
[6] = target: GPC1 on Rat2 fibroblasts (rat) (UniProt P35053); experiment: HATRIC-LRC (LRC-TriCEPS) ligand-receptor capture on Rat2 fibroblasts, LC-MS/MS; reference TRFE control ligand
[7] = target: PTK7 on Rat2 fibroblasts (rat); experiment: as above
[8] = target: CCN1 found in the Rat2 cell screen (rat) (UniProt Q9ES72); experiment: as above
[9] = target: GPC1 on Rat2 fibroblasts (rat) (UniProt P35053); experiment: HATRIC-LRC (LRC-TriCEPS) ligand-receptor capture on Rat2 fibroblasts, LC-MS/MS; reference BSA control ligand
[10] = target: PTK7 on Rat2 fibroblasts (rat); experiment: as above
[11] = target: CCN1 found in the Rat2 cell screen (rat) (UniProt Q9ES72); experiment: as above
[12] = target: GPC1 on HEK293A cells (human) (UniProt P35052); experiment: HATRIC-LRC (LRC-TriCEPS) ligand-receptor capture on HEK293A cells, LC-MS/MS; reference TRFE control ligand
[13] = target: PTK7 on HEK293A cells (human) (UniProt Q13308); experiment: as above
[14] = target: CCN1 found in the HEK293A cell screen (human) (UniProt O00622); experiment: as above
[15] = target: GPC4 on HEK293A cells (human) (UniProt O75487); experiment: as above

Sequence of UniProt Q9ES72 (Q9ES72 25-379 limits assumed): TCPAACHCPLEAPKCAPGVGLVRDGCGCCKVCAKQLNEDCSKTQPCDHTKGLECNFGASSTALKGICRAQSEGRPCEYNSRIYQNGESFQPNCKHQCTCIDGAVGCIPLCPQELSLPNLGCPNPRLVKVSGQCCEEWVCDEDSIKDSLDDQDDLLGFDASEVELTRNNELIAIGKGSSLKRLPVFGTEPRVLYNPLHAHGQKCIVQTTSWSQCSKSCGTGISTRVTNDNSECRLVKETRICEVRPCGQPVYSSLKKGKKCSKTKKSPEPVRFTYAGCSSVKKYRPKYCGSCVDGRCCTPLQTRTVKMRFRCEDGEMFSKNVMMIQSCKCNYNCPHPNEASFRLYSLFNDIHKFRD
Sequence of UniProt Q13308 (Q13308 31-1070 limits assumed): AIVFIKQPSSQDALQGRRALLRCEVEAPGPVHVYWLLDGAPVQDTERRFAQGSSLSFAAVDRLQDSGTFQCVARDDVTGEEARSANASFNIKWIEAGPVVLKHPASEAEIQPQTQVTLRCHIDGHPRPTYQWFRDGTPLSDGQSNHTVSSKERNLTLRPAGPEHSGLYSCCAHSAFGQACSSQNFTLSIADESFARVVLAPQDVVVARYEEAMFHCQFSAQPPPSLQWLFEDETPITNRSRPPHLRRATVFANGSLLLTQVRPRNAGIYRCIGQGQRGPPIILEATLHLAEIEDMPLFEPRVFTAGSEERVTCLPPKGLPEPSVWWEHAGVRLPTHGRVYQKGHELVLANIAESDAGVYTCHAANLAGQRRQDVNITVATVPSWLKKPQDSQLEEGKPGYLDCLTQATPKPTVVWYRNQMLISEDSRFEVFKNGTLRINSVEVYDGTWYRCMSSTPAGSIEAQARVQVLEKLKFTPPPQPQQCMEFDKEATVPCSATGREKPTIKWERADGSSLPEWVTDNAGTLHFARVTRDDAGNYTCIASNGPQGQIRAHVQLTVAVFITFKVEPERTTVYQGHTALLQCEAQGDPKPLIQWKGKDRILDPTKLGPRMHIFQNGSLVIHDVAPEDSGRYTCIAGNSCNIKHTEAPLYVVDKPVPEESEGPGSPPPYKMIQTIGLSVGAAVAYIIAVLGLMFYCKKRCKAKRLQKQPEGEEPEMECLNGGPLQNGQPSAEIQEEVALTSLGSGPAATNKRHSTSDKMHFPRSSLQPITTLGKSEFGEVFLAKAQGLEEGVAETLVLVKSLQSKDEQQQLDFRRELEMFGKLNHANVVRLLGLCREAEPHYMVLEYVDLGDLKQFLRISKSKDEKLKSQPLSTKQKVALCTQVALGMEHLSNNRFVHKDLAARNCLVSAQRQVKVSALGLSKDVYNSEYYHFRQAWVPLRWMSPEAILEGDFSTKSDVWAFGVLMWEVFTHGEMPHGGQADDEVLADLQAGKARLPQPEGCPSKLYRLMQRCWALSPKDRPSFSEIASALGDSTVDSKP
Sequence of UniProt O75487 (O75487 19-529 limits assumed): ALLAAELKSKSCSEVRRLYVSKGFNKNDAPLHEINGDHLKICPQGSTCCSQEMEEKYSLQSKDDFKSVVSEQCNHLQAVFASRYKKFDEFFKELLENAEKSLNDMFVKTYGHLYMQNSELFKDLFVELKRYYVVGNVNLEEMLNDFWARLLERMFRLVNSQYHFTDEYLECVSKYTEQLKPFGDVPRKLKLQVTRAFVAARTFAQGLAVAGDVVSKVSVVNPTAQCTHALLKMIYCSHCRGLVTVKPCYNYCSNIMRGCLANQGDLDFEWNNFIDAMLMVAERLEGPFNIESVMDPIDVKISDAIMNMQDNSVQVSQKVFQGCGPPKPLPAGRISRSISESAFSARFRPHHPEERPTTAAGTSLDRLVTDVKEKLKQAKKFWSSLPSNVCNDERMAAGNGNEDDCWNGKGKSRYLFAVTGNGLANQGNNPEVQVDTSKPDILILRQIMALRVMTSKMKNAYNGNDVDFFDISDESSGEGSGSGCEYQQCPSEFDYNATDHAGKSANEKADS
Sequence of UniProt P35053 (P35053 24-530): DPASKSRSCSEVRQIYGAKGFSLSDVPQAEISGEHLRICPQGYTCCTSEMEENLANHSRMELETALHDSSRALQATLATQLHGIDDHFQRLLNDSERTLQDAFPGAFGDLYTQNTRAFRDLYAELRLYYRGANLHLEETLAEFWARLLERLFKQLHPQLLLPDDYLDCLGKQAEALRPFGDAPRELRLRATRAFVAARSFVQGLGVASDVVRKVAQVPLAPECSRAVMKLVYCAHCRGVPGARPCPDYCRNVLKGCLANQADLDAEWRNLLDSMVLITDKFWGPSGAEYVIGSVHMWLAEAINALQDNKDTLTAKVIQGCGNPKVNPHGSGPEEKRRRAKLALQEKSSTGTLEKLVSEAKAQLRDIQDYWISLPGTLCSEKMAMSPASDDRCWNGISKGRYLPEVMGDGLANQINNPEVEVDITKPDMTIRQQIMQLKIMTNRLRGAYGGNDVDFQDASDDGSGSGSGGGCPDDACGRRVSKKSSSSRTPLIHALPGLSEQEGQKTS
Sequence of UniProt O00622 (O00622 25-381 limits assumed): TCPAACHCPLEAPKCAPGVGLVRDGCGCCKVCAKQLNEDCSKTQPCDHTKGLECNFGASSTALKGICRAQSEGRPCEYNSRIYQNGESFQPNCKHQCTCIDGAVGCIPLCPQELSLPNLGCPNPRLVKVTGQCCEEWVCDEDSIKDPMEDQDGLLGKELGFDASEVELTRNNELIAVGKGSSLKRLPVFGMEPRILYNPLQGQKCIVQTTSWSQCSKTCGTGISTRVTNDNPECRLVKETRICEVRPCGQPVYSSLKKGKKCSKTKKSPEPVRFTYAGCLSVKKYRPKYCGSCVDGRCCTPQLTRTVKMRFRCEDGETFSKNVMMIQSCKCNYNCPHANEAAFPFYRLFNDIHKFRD
Sequence of UniProt P35052 (P35052 24-530 limits assumed): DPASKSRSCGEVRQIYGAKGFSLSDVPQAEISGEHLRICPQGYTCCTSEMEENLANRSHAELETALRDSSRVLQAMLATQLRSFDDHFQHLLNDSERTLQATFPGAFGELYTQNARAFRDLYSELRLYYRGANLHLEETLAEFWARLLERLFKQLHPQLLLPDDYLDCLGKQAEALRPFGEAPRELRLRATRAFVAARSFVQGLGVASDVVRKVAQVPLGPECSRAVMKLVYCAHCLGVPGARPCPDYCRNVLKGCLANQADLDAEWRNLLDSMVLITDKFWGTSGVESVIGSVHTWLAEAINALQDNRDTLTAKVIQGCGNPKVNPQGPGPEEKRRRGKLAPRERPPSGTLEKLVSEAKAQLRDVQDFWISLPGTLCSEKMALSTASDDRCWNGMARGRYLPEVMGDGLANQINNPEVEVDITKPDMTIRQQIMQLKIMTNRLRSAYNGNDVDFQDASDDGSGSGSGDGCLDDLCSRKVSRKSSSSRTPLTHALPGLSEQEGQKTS
Sequence of UniProt Q99376 (Q99376 whole entry): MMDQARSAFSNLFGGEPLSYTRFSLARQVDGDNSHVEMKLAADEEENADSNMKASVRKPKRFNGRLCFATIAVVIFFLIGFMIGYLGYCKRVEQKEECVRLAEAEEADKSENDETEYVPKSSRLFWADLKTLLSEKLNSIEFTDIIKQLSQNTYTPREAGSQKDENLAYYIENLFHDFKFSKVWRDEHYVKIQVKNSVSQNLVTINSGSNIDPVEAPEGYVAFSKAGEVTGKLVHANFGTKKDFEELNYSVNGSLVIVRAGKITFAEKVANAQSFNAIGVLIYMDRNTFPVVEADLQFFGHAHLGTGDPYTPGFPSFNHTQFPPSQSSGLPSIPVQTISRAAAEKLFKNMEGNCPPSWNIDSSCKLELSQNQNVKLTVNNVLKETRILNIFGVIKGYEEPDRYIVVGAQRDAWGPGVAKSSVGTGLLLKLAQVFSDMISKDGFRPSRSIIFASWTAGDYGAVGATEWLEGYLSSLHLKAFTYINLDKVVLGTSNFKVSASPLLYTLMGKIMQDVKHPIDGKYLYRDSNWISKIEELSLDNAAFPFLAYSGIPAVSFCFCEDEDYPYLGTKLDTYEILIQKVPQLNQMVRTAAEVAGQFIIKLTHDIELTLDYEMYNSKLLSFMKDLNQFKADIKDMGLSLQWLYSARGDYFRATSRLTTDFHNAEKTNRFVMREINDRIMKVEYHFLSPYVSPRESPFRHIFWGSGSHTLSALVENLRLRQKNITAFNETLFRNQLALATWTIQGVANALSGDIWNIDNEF

Row | log 2 (FC), TRFE group against d34CCN2 group (log2 fold change) [1] | log 2 (FC) enrichment relative to BSA (log2 fold change) [2] | log 2 (FC) enrichment relative to BSA (log2 fold change) [3] | log 2 (FC) enrichment relative to BSA (log2 fold change) [4] | log 2 (FC) enrichment relative to BSA (log2 fold change) [5] | log 2 (FC) enrichment relative to TRFE (log2 fold change) [6] | log 2 (FC) enrichment relative to TRFE (log2 fold change) [7] | log 2 (FC) enrichment relative to TRFE (log2 fold change) [8] | log 2 (FC) enrichment relative to BSA (log2 fold change) [9] | log 2 (FC) enrichment relative to BSA (log2 fold change) [10] | log 2 (FC) enrichment relative to BSA (log2 fold change) [11] | log 2 (FC) enrichment relative to TRFE (log2 fold change) [12] | log 2 (FC) enrichment relative to TRFE (log2 fold change) [13] | log 2 (FC) enrichment relative to TRFE (log2 fold change) [14] | log 2 (FC) enrichment relative to TRFE (log2 fold change) [15] | Molecule
1 | -2.8 |  |  |  |  |  |  |  |  |  |  |  |  |  |  | transferrin (TRFE) coupled to TriCEPS v3.0 (ligand)
2 |  | 2.85 | 3.26 | 5.63 | 2.85 | 4.4 | 3 | 4.1 | 4.2 | 2.7 | 3.4 | 4.19 | 3.09 | 4.73 | 2.84 | B1
